Measurements reported in patent US20250326839A1, “TREATMENT OF DISEASES RELATED TO COLONY-STIMULATING FACTOR 1 RECEPTOR DYSFUNCTION USING TREM2 AGONISTS” (Vigil Neuroscience, Inc., priority 2020, published 2025).
Changes are numbered by the printed parent chain. Names may count otherwise.

T1: TREM2 (Homo sapiens, UniProt Q9NZC2)
T1 sequence (Q9NZC2 19-230): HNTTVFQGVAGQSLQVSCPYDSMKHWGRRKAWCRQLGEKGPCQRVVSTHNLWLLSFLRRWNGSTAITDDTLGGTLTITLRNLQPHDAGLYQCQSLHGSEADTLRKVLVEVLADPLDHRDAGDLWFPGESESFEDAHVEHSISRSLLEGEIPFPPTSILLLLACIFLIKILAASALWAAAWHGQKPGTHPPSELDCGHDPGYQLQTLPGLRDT

B1: Ab-3: murinized version of a human TREM2 agonist antibody, engineered variant of 13E7; HC SEQ ID NO:2779, LC SEQ ID NO:2780 (antibody)
heavy: EVQLVQSGAEVKKPGESLKISCKGSGYSFTSYWIGWVRQMPGKGLEWMGIIYPGDADARYSPSFQGQVTISADKSISTAYLQWSSLKASDTAMYFCARRRQGIFGDALDFWGQGTLVTVSSAKTTPPSVYPLAPGSAAQTNSMVTLGCLVKGYFPEPVTVTWNSGSLSSGVHTFPAVLQSDLYTLSSSVTVPSSTWPSETVTCNVAHPASSTKVDKKIVPRDCGCKPCICTVPEVSSVFIFPPKPKDVLTITLTPKVTCVVVDISKDDPEVQFSWFVDDVEVHTAQTQPREEQFGSTFRSVSELPIMHQDWLNGKEFKCRVNSAAFPAPIEKTISKTKGRPKAPQVYTIPPPKEQMAKDKVSLTCMITDFFPEDITVEWQWNGQPAENYKNTQPIMDTDGSYFVYSKLNVQKSNWEAGNTFTCSVLHEGLHNHHTEKSLSHSPGK
light: EIVMTQSPATLSVSPGERATLSCRASQSVSSNLAWFQQKPGQAPRLLIYGASTRATGIPARFSGSGSGTEFTLTISSLQPEDFAVYYCLQDNNFPPTFGQGTKVDIKRADAAPTVSIFPPSSEQLTSGGASVVCFLNNFYPKDINVKWKIDGSERQNGVLNSWTDQDSKDSTYSMSSTLTLTKDEYERHNSYTCEATHKTSTSPIVKSFNRNEC
modifications: REGION 1..445: note = Murinized Ab-3 HC; REGION 1..214: note = Murinized Ab-3 LC
B2: V61: 6E7 variant: VH T30S, S61N, Q99G; VL Q55V, F94L (antibody, V domains shown)
VH: EVQLVQSGAEVKKPGESLKISCKGSGYSFSSYWIAWVRQMPGKGLEWMGIIYPGDSDTRYNPSFQGQVTISADKSISTAYLQWSSLKASDTAMYFCARGRTFYYDSSDYFDYWGQGTLVTVSS
VL: DIQMTQSPSSVSASVGDRVTITCRASQGISSWLAWYQQKPGKAPKLLIYAASSLVNGVPSRFSGSGSGTDFTLTISSLQPEDFATYFCQQADSLPRTFGQGTKLEIK
B3: V62: 6E7 variant: VH T30G, S61A, D108G; VL N56R, Q89G (antibody, V domains shown)
VH: B2 VH with S30G, N61A, G99Q, D108G
VL: B2 VL with V55Q, N56R, Q89G, L94F
B4: V63: 6E7 variant: VH T30R, Q99S; VL N56R, S93R (antibody, V domains shown)
VH: B2 VH with S30R, N61S, G99S
VL: B2 VL with V55Q, N56R, S93R, L94F
B5: V64: 6E7 variant: VH T30Q, Q99G; VL Q55A, F94Y (antibody, V domains shown)
VH: B2 VH with S30Q, N61S
VL: B2 VL with V55A, L94Y
B6: V72: 6E7 variant: VH A35G, Q99G; VL Q55V, F94Y (antibody, V domains shown)
VH: B2 VH with S30T, A35G, N61S
VL: B2 VL with L94Y
B7: V73: 6E7 variant: VH T30G, S63G, Q99G; VL L54R, F94Y (antibody, V domains shown)
VH: B2 VH with S30G, N61S, S63G
VL: B2 VL with L54R, V55Q, L94Y
B8: V74: 6E7 variant: VH T30A, T58V, Q99G; VL N56L (antibody, V domains shown)
VH: B2 VH with S30A, T58V, N61S
VL: B2 VL with V55Q, N56L, L94F
B9: V75: 6E7 variant: VH Q99G; VL N56A, F94Y (antibody, V domains shown)
VH: B2 VH with S30T, N61S
VL: B2 VL with V55Q, N56A, L94Y
B10: V76: 6E7 variant: VH T30G, S63E, F110S; VL N56K (antibody, V domains shown)
VH: B2 VH with S30G, N61S, S63E, G99Q, F110S
VL: B2 VL with V55Q, N56K, T69R, L94F
B11: V84: 6E7 variant: VH S28G, F110S; VL A50G (antibody, V domains shown)
VH: B2 VH with S28G, S30T, N61S, G99Q, F110S
VL: B2 VL with A50G, V55Q, L94F
B12: V85: 6E7 variant: VH T30R, I50T, Q99S; VL L54R (antibody, V domains shown)
VH: B2 VH with S30R, I50T, N61S, G99S
VL: B2 VL with L54R, V55Q, L94F
B13: V86: 6E7 variant: VH T30G, I34L, Q65E, Q99S; VL L54R (antibody, V domains shown)
VH: B2 VH with S30G, I34L, N61S, Q65E, G99S
VL: B2 VL with L54R, V55Q, L94F

Test system: human monocyte-derived macrophages (hMDMs)
Assay: Example 2E: CSF1R inhibition by PLX5622, confluence and morphology (Incucyte)
Type: cell-based
Conditions: plates coated with 10 μg/mL, plus PLX5622 1 μM, 96 hours, FIG. 5
Method: PBMCs were isolated from fresh, whole blood from human donors. CD14+ monocytes were isolated using positive magnetic selection (Miltenyi). Cells were plated in UpCell® low-adhesion plates and incubated in culture media with 50 ng/mL CSF1 for 48 hours. After 48 hours, cells were non-enzymatically harvested and plated at 25,000 cells per well in cell culture plates coated with 10 μg/mL of either Ab-3 or a matching isotype control. PLX5622 was immediately added to the cultures to 1 μM, and plates were incubated in a humidified incubator at 37 C, 5% CO2 for an additional 96 hours. During incubation, cells were monitored every two hours using an Incucyte S3® analyzer (2 fields of view per well, imaged at 10×). Confluence was measured using built in S3 software, while area and eccentricity (cell shape) were measured using the built in “Cell By Cell” analysis software. Significance was determined by Student's T-test, two-tailed in Graphpad Prism.

Row | Molecule | confluence
1 | B1 | restoration of confluence to levels similar to that of vehicle alone

Same assay, conditions: plates coated with 10 μg/mL, plus PLX5622 1 μM, 96 hours, FIG. 6

Row | Molecule | cells with “high area, high eccentricity” (ramified)
2 | B1 | restoration of “high area, high eccentricity” to levels higher than that of vehicle alone

Test system: human monocyte-derived macrophages (hMDMs)
Assay: Example 1E: CSF1 withdrawal, confluence and Caspase 3/7 apoptosis (Incucyte)
Type: cell-based
Conditions: CSF1 withdrawal (0 ng/mL), plates coated with 0.4, 2.0 or 10 μg/mL, 72 hours, donors 16 and 26, FIGS. 1 and 2
Method: PBMCs were isolated from fresh, whole blood from human donors. CD14+ monocytes were isolated using positive magnetic selection (Miltenyi). Cells were plated in UpCell® low-adhesion plates and incubated in culture media with 50 ng/mL CSF1 for 48 hours. After 48 hours, cells were non-enzymatically harvested and plated at 25,000 cells per well in cell culture plates coated with 0.4, 2.0, or 10 μg/mL of either Ab-3 or a matching isotype control, and incubated in a humidified incubator at 37C, 5% CO2 for 72 hours. Caspase-3/7 Green reporter dye was included in the some wells to determine the number of apoptotic events over time. During incubation, cells were monitored every two hours using an Incucyte S3® analyzer (2 fields of view per well, imaged at 10×). Confluence levels were determined using the Incucyte® software, and normalized to CSF1 at 50 ng/mL, which was considered as normal culture conditions. Caspase 3/7 positive counts per field of view were calculated using Incucyte® software. Significance was determined by Ordinary One-Way ANOVA, using multiple comparisons in Graphpad Prism.

Row | Molecule | confluence
3 | B1 | increased confluence levels to that of high CSF1 treated cells

Same assay, conditions: CSF1 withdrawal (0 ng/mL), plates coated with 0.4, 2.0 or 10 μg/mL, 72 hours, donors 16 and 26, FIGS. 3 and 4

Row | Molecule | Caspase 3/7 levels (apoptosis)
4 | B1 | reduced Caspase 3/7 levels to that of high CSF1 treated cells

Target: T1, TREM2
Assay: not given
Conditions: 1st screen, 10 nM Ab concentration (values not marked *); cited from earlier work

Row | Molecule | Binding Signal (fold over 6E7 parental antibody) 1st screen 110 nM or 10 nM
5 | B2 | 5.08 fold over 6E7 parental antibod
6 | B3 | 2.49 fold over 6E7 parental antibod
7 | B4 | 3.76 fold over 6E7 parental antibod
8 | B5 | 5.41 fold over 6E7 parental antibod
9 | B6 | 3.64 fold over 6E7 parental antibod
10 | B7 | 5.12 fold over 6E7 parental antibod
11 | B8 | 3.94 fold over 6E7 parental antibod
12 | B9 | 4.64 fold over 6E7 parental antibod
13 | B10 | 4.57 fold over 6E7 parental antibod
14 | B11 | 1.44 fold over 6E7 parental antibod
15 | B12 | 5.41 fold over 6E7 parental antibod
16 | B13 | 4.80 fold over 6E7 parental antibod

Same assay, conditions: 2nd screen, 2 nM; cited from earlier work

Row | Molecule | Binding Signal (fold over 6E7 parental antibody) 2nd screen 2 nM
17 | B2 | 3.63 fold over 6E7 parental antibod
18 | B3 | 1.87 fold over 6E7 parental antibod
19 | B4 | 4.91 fold over 6E7 parental antibod
20 | B5 | 4.88 fold over 6E7 parental antibod
21 | B6 | 2.50 fold over 6E7 parental antibod
22 | B7 | 4.17 fold over 6E7 parental antibod
23 | B8 | 2.54 fold over 6E7 parental antibod
24 | B9 | 3.74 fold over 6E7 parental antibod
25 | B10 | 4.34 fold over 6E7 parental antibod
26 | B11 | 1.45 fold over 6E7 parental antibod
27 | B12 | 5.41 fold over 6E7 parental antibod
28 | B13 | 5.17 fold over 6E7 parental antibod

Same assay, conditions: 2nd screen, 10 nM; cited from earlier work

Row | Molecule | Binding Signal (fold over 6E7 parental antibody) 2nd screen 10 nM
29 | B2 | 5.22 fold over 6E7 parental antibod
30 | B3 | 2.89 fold over 6E7 parental antibod
31 | B4 | 3.71 fold over 6E7 parental antibod
32 | B5 | 5.48 fold over 6E7 parental antibod
33 | B6 | 4.01 fold over 6E7 parental antibod
34 | B7 | 5.44 fold over 6E7 parental antibod
35 | B8 | 4.01 fold over 6E7 parental antibod
36 | B9 | 4.52 fold over 6E7 parental antibod
37 | B10 | 4.93 fold over 6E7 parental antibod
38 | B11 | 1.62 fold over 6E7 parental antibod
39 | B12 | 5.37 fold over 6E7 parental antibod
40 | B13 | 5.02 fold over 6E7 parental antibod
